Our source for the binding result and Kd values is paper PMC9932118.

Like-named read-outs stand apart in the source and are kept apart here.

In series [1] the target is T1, ZBTB7A ZF1-4 short fragment (Homo sapiens, UniProt O95365 370-500). The series can be described thus: X-ray crystallography.
Series [2] concerns the target T1, ZBTB7A ZF1-4 short fragment. In words: X-ray crystallography. The source holds these as a separate data set.
Series [3] addresses T2, ZBTB7A long fragment (Homo sapiens, UniProt O95365 341-505). The series can be described thus: FP.
In series [4] the target is T1, ZBTB7A ZF1-4 short fragment. In words: FP.
For series [5] the target is unchanged. In words: X-ray crystallography. The source holds these as a separate data set.
Series [6] concerns the target T2, ZBTB7A long fragment. In words: X-ray crystallography.
Series [7] has as its target T1, ZBTB7A ZF1-4 short fragment. The series can be described thus: X-ray crystallography. The source holds these as a separate data set.

T1 sequence (O95365 370-500): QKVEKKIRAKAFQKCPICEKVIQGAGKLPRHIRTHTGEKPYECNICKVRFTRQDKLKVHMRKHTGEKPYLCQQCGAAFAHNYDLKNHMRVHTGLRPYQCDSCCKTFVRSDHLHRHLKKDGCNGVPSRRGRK
T2 sequence (O95365 341-505): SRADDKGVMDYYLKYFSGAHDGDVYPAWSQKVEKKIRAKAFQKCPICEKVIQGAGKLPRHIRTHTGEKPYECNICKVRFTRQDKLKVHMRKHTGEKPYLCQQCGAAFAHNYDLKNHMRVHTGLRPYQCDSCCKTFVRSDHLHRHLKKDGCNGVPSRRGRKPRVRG

B1: GaCCC crystal DNA 7N5W (dsDNA)
DNA 1: GGGACCCTTCATGTTT
DNA 2: CAAACATGAAGGGTCC
Turning to B1, the binding result in series [1] is “binds”.

B2: GaCCC crystal DNA 7N5V (dsDNA)
DNA 1: GGGACCCTTGATGTTT
DNA 2: AAACATCAAGGGTCCC
For the molecule B2, the binding result in series [2] is given as “binds”.

B3: oligo #6 CAST 16 bp (dsDNA)
DNA 1: AAGACCCCTCCCCGAA
DNA 2: TTCGGGGAGGGGTCTT
For B3, the Kd in series [3] and in series [4] was approximately 80 nM throughout.

B4: CAST crystal DNA 8E3D (dsDNA)
DNA 1: GGTAAAAGACCCCTCCCCAAAT
DNA 2: ATTTGGGGAGGGGTCTTTTACC
With B4, the binding result in series [5] is “binds”.

B5: CAST crystal DNA 8E3E (dsDNA)
DNA 1: GGTAAAAGACCCCTCCCCAAA
DNA 2: CTTTGGGGAGGGGTCTTTTAC
In the case of B5, the binding result in series [6] was “binds”.

B6: GaCCC crystal DNA 7N5U (dsDNA)
DNA 1: GGGACCCTTGATGTTT
DNA 2: CAAACATCAAGGGTCC
B6: the binding result in series [7] is on record as “binds”.
